Reference: article PMC4811591, “Role of the Substrate Specificity-Defining Residues of Human SIRT5 in Modulating the Structural Stability and Inhibitory Features of the Enzyme” (PLoS ONE, 2016)
Changes are numbered by the printed parent chain. In names and notes the source's numbering stands.

What was measured:
Assay type in all cases: biochemical, human
[1] = substrate: NC(=O)c1ccc[n+]([C@@H]2O[C@H](COP(=O)([O-])OP(=O)(O)OC[C@H]3O[C@@H](n4cnc5c(N)ncnc54)[C@H](O)[C@@H]3O)[C@@H](O)[C@H]2O)c1; experiment: SIRT5 wild type desuccinylation reaction, trypsin coupled fluorescence assay with Ac-SucLys-AMC; settings: other: desuccinylation, succinyl substrate, 25°C, pH 8.0
Method: (§1) The steady state rates of the enzyme catalyzed reactions were derived from the time dependent changes in the fluorescence signal, and the data were analyzed by the ternary complex kinetic mechanism (Eq 4) via Grafit 4 software.
(§2) The steady-state kinetic data were fitted globally by the competitive, mixed, and noncompetitive inhibition models using the DYNAFIT software based on the rapid-equilibrium approximation [43]. All the parameters were allowed to float except for the enzyme concentration. The software utilizes several model-discrimination criteria, including the second order Akaike Information Criterion (AIC) [44, 45], so that the best model out of the three different candidates could be identified.

[2] = substrate: NC(=O)c1ccc[n+]([C@@H]2O[C@H](COP(=O)([O-])OP(=O)(O)OC[C@H]3O[C@@H](n4cnc5c(N)ncnc54)[C@H](O)[C@@H]3O)[C@@H](O)[C@H]2O)c1; experiment: SIRT5 Y102A/R105I deacetylation reaction, trypsin coupled assay with Fluor-de-lys; settings: other: deacetylation, acetyl substrate; pH 8.0; 25.0 °C
Method: The sirtuin catalyzed deacetylase and desuccinylase reactions were measured via the trypsin coupled assay system as described by Madsen et al [39]. […] Since trypsin was used as a coupling enzyme, its concentration was optimized to ensure the emergence of minimal or negligible lag-phase prior to the onset of the steady state phase [42]. […] The steady state rates of the enzyme catalyzed reactions were derived from the time dependent changes in the fluorescence signal, and the data were analyzed by the ternary complex kinetic mechanism (Eq 4) via Grafit 4 software.
as §2
Other reaction conditions were the same as described above. The data were fitted by Eq 5 by Grafit 4.0.

[3] = substrate: NC(=O)c1ccc[n+]([C@@H]2O[C@H](COP(=O)([O-])OP(=O)(O)OC[C@H]3O[C@@H](n4cnc5c(N)ncnc54)[C@H](O)[C@@H]3O)[C@@H](O)[C@H]2O)c1; experiment: SIRT5 Y102A deacetylation reaction, trypsin coupled assay with Fluor-de-lys; settings: other: deacetylation, acetyl substrate; pH 8.0; 25.0 °C
Method: as §1, §2

[4] = substrate: NC(=O)c1ccc[n+]([C@@H]2O[C@H](COP(=O)([O-])OP(=O)(O)OC[C@H]3O[C@@H](n4cnc5c(N)ncnc54)[C@H](O)[C@@H]3O)[C@@H](O)[C@H]2O)c1; experiment: SIRT5 Y102A desuccinylation reaction, trypsin coupled assay with Ac-SucLys-AMC; settings: other: desuccinylation, succinyl substrate; pH 8.0; 25.0 °C
Method: as §1, §2

[5] = substrate: NC(=O)c1ccc[n+]([C@@H]2O[C@H](COP(=O)([O-])OP(=O)(O)OC[C@H]3O[C@@H](n4cnc5c(N)ncnc54)[C@H](O)[C@@H]3O)[C@@H](O)[C@H]2O)c1; experiment: SIRT5 R105I deacetylation reaction, trypsin coupled assay with Fluor-de-lys; settings: other: deacetylation, acetyl substrate; pH 8.0; 25.0 °C
Method: as §1, §2

[6] = substrate: NC(=O)c1ccc[n+]([C@@H]2O[C@H](COP(=O)([O-])OP(=O)(O)OC[C@H]3O[C@@H](n4cnc5c(N)ncnc54)[C@H](O)[C@@H]3O)[C@@H](O)[C@H]2O)c1; experiment: SIRT1 deacetylation reaction, trypsin coupled assay with Fluor-de-lys; settings: other: deacetylation, acetyl substrate; pH 8.0; 25.0 °C
Method: as §1, §2

B1: SIRT5 wild type (Homo sapiens) (protein)
chain: KHIVIISGAGVSAESGVPTFRGAGGYWRKWQAQDLATPLAFAHNPSRVWEFYHYRREVMGSKEPNAGHRAIAECETRLGKQGRRVVVITQNIDELHRKAGTKNLLEIHGSLFKTRCTSCGVVAENYKSPICPALSGKGAPEPGTQDASIPVEKLPRCEEAGCGGLLRPHVVWFGENLDPAILEEVDRELAHCDLCLVVGTSSVVYPAAMFAPQVAARGVPVAEFNTETTPATNRFRFHFQGPCGTTLPEAL
notes: SIRT1 (193–747) and SIRT5 (51–301) were cloned into the pLIC-His expression vector; His tag (pLIC-His vector); made in house; host or cells: E. coli BL21(DE3) Star
B1 was tested, and the Km [1] was 69 ± 9 µM.

B2: SIRT5 Y102A/R105I (Homo sapiens; R105I/Y102A) (protein)
chain: B1 chain with Y52A, R55I
notes: as for B1
With B2 the Km [2] was 1194 ± 667 µM.

B3: SIRT5 Y102A (Homo sapiens; Y102A) (protein)
chain: B1 chain with Y52A
notes: as for B1
B3 gave a Km [3] of 1605 ± 321 µM and a Km [4] of 321 ± 49 µM.

B4: SIRT5 R105I (Homo sapiens; R105I) (protein)
chain: B1 chain with R55I
notes: as for B1
In the case of B4, the Km [5] is reported as 609 ± 120 µM.

B5: SIRT1 (Homo sapiens) (protein)
chain: MIGTDPRTILKDLLPETIPPPELDDMTLWQIVINILSEPPKRKKRKDINTIEDAVKLLQECKKIIVLTGAGVSVSCGIPDFRSRDGIYARLAVDFPDLPDPQAMFDIEYFRKDPRPFFKFAKEIYPGQFQPSLCHKFIALSDKEGKLLRNYTQNIDTLEQVAGIQRIIQCHGSFATASCLICKYKVDCEAVRGDIFNQVVPRCPRCPADEPLAIMKPEIVFFGENLPEQFHRAMKYDKDEVDLLIVIGSSLKVRPVALIPSSIPHEVPQILINREPLPHLHFDVELLGDCDVIINELCHRLGGEYAKLCCNPVKLSEITEKPPRTQKELAYLSELPPTPLHVSEDSSSPERTSPPDSSVIVTLLDQAAKSNDDLDVSESKGCMEEKPQEVQTSRNVESIAEQMENPDLKNVGSSTGEKNERTSVAGTVRKCWPNRVAKEQISRRLDGNQYLFLPPNRYIFHGAEVYSDSEDDVLSSSSCGSNSDSGTCQSPSLEEPMEDESEIEEFYNGLEDEPDVPERAGGAGFGTDGDDQEAINEAISVKQEVTDMNYPSNKS
notes: as for B1
In the case of B5, the Km [6] is reported as 388 ± 73 µM, the kcat [6] is reported as 0.000579 ± 9.1e-05 s⁻¹ and the kcat/Km [6] is reported as 1.63 M⁻¹ s⁻¹.
